Reference: US20100316641A1 (US Dept. of Health and Human Services, published 2010)

B1: m1a1 (designed binder)
chain: APELLGGPSVFLFPPKPKDTLMISRTPEVTCVVVDYDYDSYFDFGKFNWYVDGVEVHNAKTKPREEQYNSTYRVVSVLTVLHQDWLNGKEYKCKVSNSDSAASGPIEKTISKAK
notes: also called CH2 clone m1a1; nAb m1a1; not shown: C-terminal His tag used for detection
B2: m1a2 (designed binder)
chain: APELLGGPSVFLFPPKPKDTLMISRTPEVTCVVVDYDYDSYYDGKFNWYVDGVEVHNAKTKPREEQYNSTYRVVSVLTVLHQDWLNGKEYKCKVSNDDYAADGPIEKTISKAK
notes: also called CH2 clone m1a2; nAb m1a2; not shown: C-terminal His tag used for detection

Target: T1, Bal gp120-CD4 (HIV-1 (Bal isolate))
T1 construct: domain: gp120;domain: two-domain CD4; also called gp120Bal-CD4; panning antigen; not shown: junction or linker between gp120 and CD4 is not described
Assay: ELISA, antigen coated, purified refolded nAb, anti-His-HRP

Binder	EC50 [nM]
B1	500
B2	500
